Measurements taken from US20210122827A1.

Biological target: human GLP-1 receptor (human) (UniProt P43220)
Experiment: cell-based or functional assay

human GLP-1 receptor (human), sequence (P43220 24-463): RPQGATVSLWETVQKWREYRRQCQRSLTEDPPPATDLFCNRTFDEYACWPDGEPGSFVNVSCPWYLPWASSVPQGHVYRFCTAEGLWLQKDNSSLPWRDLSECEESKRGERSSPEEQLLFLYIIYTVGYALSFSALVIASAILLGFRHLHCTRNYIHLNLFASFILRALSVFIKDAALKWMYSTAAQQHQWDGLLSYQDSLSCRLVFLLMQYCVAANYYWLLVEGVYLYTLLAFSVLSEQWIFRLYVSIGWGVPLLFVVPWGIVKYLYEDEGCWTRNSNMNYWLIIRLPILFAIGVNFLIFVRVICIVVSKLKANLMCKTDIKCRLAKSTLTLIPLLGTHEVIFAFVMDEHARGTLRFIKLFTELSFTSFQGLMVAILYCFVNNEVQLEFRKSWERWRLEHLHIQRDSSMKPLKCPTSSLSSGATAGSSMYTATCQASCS

## GMA102 (proprietary fusion protein of GLP-1R antibody and GLP-1)
  EC50, CRE-Luciferase reporter gene assay on CHO-DHFR- cells co-expressing hGLP1R: 0.016 nM
